Holding throughout (assay): SPR, mAb captured, C2 mutant analyte;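 further: Anti-C2 mAbs captured on goat anti-human IgG Biacore CM5 chips, alanine or serine C2 surface mutants flowed over at 37 °C, double-referenced sensorgrams fitted to a 1:1 binding model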
The target of one assay is T1, human C2 E686A (human, UniProt P06681 21-752).
T1 sequence: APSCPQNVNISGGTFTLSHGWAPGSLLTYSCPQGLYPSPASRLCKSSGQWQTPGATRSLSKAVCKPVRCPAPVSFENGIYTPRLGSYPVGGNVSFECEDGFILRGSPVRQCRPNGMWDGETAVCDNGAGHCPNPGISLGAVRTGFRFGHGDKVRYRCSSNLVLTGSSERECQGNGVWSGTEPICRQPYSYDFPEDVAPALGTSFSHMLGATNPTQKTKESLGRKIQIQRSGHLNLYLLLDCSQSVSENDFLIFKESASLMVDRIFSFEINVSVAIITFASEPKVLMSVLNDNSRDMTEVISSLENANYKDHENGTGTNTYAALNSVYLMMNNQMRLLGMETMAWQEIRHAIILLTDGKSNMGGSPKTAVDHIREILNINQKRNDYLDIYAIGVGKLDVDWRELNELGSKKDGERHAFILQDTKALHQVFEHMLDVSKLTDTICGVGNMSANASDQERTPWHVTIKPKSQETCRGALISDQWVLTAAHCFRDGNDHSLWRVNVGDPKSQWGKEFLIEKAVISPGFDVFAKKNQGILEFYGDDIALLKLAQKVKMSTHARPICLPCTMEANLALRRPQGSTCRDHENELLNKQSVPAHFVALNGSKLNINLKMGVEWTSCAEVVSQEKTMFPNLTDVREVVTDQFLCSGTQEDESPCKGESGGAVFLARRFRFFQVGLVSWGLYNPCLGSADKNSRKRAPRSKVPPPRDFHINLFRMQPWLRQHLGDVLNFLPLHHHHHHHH

For another assay, the target named is T2, human C2 R688A (human, UniProt P06681 21-752).
T2 sequence: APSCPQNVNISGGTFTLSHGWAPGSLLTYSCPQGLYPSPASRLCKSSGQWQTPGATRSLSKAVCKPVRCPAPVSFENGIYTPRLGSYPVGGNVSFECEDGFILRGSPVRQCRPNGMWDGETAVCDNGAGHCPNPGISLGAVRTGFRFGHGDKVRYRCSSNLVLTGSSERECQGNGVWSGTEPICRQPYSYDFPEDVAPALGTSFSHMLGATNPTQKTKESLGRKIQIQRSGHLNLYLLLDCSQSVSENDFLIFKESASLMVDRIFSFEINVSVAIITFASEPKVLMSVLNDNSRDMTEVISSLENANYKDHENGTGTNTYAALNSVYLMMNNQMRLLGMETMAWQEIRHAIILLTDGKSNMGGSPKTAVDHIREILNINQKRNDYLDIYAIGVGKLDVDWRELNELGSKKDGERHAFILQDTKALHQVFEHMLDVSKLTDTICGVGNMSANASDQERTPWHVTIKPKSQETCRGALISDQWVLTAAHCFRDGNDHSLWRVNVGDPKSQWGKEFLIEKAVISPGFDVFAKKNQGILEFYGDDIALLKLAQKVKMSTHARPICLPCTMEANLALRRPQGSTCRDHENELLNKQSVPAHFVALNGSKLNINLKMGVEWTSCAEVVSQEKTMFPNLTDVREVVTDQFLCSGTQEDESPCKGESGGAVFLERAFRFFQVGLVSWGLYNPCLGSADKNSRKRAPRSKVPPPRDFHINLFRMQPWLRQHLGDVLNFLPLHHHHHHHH

The target of a further assay is T3, human C2 T317A (human, UniProt P06681 21-752).
T3 sequence: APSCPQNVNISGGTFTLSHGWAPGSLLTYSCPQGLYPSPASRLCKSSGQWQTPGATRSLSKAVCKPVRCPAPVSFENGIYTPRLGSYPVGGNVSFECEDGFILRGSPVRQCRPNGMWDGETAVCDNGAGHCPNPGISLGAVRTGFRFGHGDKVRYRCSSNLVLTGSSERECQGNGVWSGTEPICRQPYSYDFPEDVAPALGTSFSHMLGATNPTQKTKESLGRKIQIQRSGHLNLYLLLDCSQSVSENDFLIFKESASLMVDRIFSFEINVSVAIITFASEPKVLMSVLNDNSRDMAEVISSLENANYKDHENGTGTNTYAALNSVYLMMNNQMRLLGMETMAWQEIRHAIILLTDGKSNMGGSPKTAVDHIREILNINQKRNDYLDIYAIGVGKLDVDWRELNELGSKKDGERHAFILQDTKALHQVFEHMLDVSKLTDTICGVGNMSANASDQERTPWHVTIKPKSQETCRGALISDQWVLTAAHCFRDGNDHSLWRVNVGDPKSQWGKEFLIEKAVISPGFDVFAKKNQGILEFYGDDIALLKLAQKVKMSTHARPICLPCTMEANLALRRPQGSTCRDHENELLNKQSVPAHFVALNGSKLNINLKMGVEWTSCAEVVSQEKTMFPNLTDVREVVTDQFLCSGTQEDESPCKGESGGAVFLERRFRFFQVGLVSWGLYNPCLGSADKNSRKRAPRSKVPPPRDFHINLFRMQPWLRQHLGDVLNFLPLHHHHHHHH

The next assay deals with T4, human C2 N327A (human, UniProt P06681 21-752).
T4 sequence: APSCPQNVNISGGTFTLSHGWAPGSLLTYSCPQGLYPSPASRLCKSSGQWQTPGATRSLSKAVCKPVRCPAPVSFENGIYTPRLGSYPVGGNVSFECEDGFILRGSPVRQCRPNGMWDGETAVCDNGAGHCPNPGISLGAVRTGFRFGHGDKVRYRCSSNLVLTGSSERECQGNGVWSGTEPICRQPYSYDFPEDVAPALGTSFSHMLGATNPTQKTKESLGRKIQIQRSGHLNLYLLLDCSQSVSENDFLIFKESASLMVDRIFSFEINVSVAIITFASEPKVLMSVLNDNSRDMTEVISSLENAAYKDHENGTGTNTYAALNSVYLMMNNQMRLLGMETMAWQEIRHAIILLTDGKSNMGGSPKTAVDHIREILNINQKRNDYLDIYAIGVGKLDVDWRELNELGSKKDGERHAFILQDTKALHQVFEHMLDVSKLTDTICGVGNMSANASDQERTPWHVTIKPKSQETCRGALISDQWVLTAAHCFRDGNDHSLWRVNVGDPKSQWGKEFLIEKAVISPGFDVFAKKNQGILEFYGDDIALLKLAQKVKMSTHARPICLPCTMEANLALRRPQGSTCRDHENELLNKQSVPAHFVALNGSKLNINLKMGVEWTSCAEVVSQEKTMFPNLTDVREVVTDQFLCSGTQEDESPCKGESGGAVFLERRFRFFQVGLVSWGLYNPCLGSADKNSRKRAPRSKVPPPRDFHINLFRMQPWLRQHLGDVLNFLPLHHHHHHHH

B1: RF16-214 (antibody, V domains shown)
VH: EVQLLESGGGLVQPGGSLRLSCAASGFTFSWYQMMWVRQAPGKGLEWVSRIYPSGGGTAYADSVKGRFTISRDNSKNTLYLQMNSLRAEDTAVYYCARDAGYGDNWGQGTLVTVSS
VL: QSALTQPPSVSVSPGQTASITCSGDKLGEKYASWYQQKAGQSPVMVIYQDRKRPSGIPERFSGSNSGNTATLTISGTQAMDEADYYCQAWDTRAVVFGGGTKLTVLG
Take B1: the Kd with human C2 E686A was found to be 139 nM; with human C2 R688A, 96.2 nM; with human C2 T317A, 27.9 nM; with human C2 N327A, 205 nM.

For the origin of these results see patent publication US20220332804A1 (CSL INNOVATION, published 2022).
